For data set [1], the system named is S1-KRAB ATF (synthetic construct). Nature of the data set: cell_activity. The following applies: luciferase reporter with target site in HEK293T, p<0.05. (In a reporter assay the amount or activity of a reporter protein is the signal.)
The test system of data set [2] is S1 zinc finger array (six-finger ATF) (synthetic construct). The data set can be described thus: EMSA. The conditions noted are these: ZBA (10 mM Tris pH 8.5, 90 mM KCl, 1 mM MgCl2, 100 uM ZnCl2), 0.05% NP-40, 0.1 mg/mL BSA, glycerol, room temperature 1.5 h; apparent KD, average of at least …. On the technique in general: Mobility shift assays separate free from complexed probe on a gel.

Data set [3] relates to SR71-KRAB ATF (synthetic construct). Nature of the data set: cell_activity. The conditions noted are these: luciferase reporter with target site in HEK293T, p<0.05.

As for “CATGCGTAGGGAGCCGCG (double strand) [S1 target site (18 bp; Snurf promoter)]”, in data set [1], the activity (fold repression) was over 5.
With “CCTCTTCGCTATTACGCCAGCCATGCGTAGGGAGCCGCGGAACGTTCGATCGTACTCGAGTCAGGGTG (double strand) [S1 EMSA target]”, the Kd in data set [2] is 3 nM.
“GCAGGACCTGCTGCACTG (double strand) [SR71 target site (18 bp)]”: the activity (fold repression) in data set [3] is over 5.

Source of the values: US20180346531.
